In patent KR20210118351A (dated 2021):
Residue numbers refer to the chain shown, from its start. Where two headings read alike, the source gives them in different places.

B1: No. 270 항체 (Full IgG) (antibody, V domains shown)
VH: QVQLVQSGGGLVQPGGSLRLSCAASGLTVSSNYMTWVRQAPGKGLEWVSVIYSGGSTFYADSVKGRFTISRDNSKNTLYLQMNSLRAEDTAVYYCARDLVVYGMDVWGQGTTVTVSS
VL: ELVLTQSPGTLSLSPGERATLSCRASQSVSSYLAWYQQKPGQAPRLLIYDASNRATGIPARFSGSGSGTDFTLTISSLEPEDFAVYYCQQYGSSPLTFGGGTKVDIK
B2: No. 274 항체 (Full IgG) (antibody, V domains shown)
VH: B1 VH with Q1E, Q6E, L27F
VL: ELELTQPPSVSGAPGQRVTISCTGSSSNIGAGYDVHWYQQLPGTAPKLLIYGNSNRPSGVPDRFSGSKSGTSASLAITGLQAEDEADYYCQSYDSSLGVVFGGGTKVTVL
B3: No. 281 항체 (Full IgG) (antibody, V domains shown)
VH: B1 VH with L27I, T35S, F58N, V100I
VL: ELVLTQPPSVSGAPGQRVTISCTGSSSNIGAGYDVHWYQQLPGTAPKLLIYGNSNRPSGVPDRFSGSKSGTSASLAITGLQAEDEADYYCAAWDDSLSGWVFGGGTKVTVL
B4: No. 275 항체 (Full IgG) (antibody, V domains shown)
VH: B1 VH with Q1E, Q6E, L27F
VL: ELVLTQPPSVSVAPGKTARITCGGNNIGSNTVNWYQQLPGTAPKLLIYSNNLRPSGVPDRFSGSKSGTSASLAISGLQSEDEADYYCAAWDDSLNGPVFGGGTKVTVL
B5: No. 271 항체 (Full IgG) (antibody, V domains shown)
VH: B1 VH with Q1E, Q6E, L27F
VL: ELELTQPPSASGTPGQRVTISCSGSSSNIGSNTVNWYQQLPGTAPKLLIYSNNQRPSGVPDRFSGSKSGTSASLAISGLQSEDEADYYCSSYAGSNNLVFGGGTKLTVL
B6: No. 260 항체 (Full IgG) (antibody, V domains shown)
VH: EVQLVESGGGLVQPGRTLRLSCAASGFTFDDYAMHWVRQPPGKGLEWVSGIDWNSGLIGYADAVKGRFTLSRDNAKNSIFLQMNSLRAEDTALYYCVKDMGSTGGYYGMDVWGQGTTVIVSS
VL: not shown
B7: No. 217 항체 (Full IgG) (antibody, V domains shown)
VH: EVQLVESGGGVVQPGRSLRLSCAASGFTFSRFAMHWVRQAPGKGLEWVAVVSYDGSNNYYADSVKGRFTISRDNSKNTLYLQMNSLRAEDTAVYYCARGDYYGSGSYYNPSPFFDYWGQGTLVTVSS
VL: not shown
B8: No. 230 항체 (Full IgG) (antibody, V domains shown)
VH: B7 VH with E1Q, E6Q, R31N, V51I, N58K, S75F
VL: not shown
B9: No. 218 항체 (Full IgG) (antibody, V domains shown)
VH: B7 VH with E1Q, E6Q, R31S, V51I, Y53F, N58K, R67Q
VL: ELELTQPPSVSGTPGQRVSISCSGSTSNIGSNPVNWFQQLPGTAPKLLIYSNNQRPSGVPNRFSGSKSGTSASLAISGLQSDDEADYYCAAWDDSLNGWVFGGGTKVTVL
B10: No. 152 항체 (Full IgG) (antibody, V domains shown)
VH: QITLKESGPSLVKPSQTLTLTCTFSGFSLTTSGMGVGWIRQPPGKALEWLALIDWDDNKYYTTSLKTRLTISKDTSKNQVVLTMTNMDPVDTATYYCARIPGFLRYRNRYYYYGMDVWGQGTTVTVSS
VL: ELVLTQPPSVSAAPGQKVTISCSGRSSNIGNNYVSWYQQLPGTAPKLLIYDNNKRPSGIPDRFSGSKSGTSATLGITGLQTGDEADYYCGTWDSSLSAGVFGGGTQLTVL
B11: No. 284 항체 (Full IgG) (antibody, V domains shown)
VH: QVQLVQSGGGLVQPGGSLRLSCAASGVTVSSNYMSWVRQAPGKGLEWVSVIYSGGSTYYADSVKGRFTISRHNSKNTLYLQMNSLRAEDTAVYYCARGHVDIPYGMDVWGQGTTVTVSS
VL: B10 VL with R25S

Assays:
Assay in all cases: cell-based or functional assay
[1] = molecular target: T1, S protein of SARS-CoV-2 BetaCoV/Korea/KCDC03/2020 (614D, S형) (SARS-CoV-2, UniProt P0DTC2 14-1273)
[2] = molecular target: S protein of SARS-CoV-2 hCoV-19/South Korea/KUMC17/2020 (614G) (SARS-CoV-2, UniProt P0DTC2 14-1273)
[3] = molecular target: T1, S protein of SARS-CoV-2 …; remark: listed apart in the source

Binder	IC50, PRNT [1]	IC50, PRNT [2]	IC50, PRNT [3]
B1	0.152 µg/mL		
B2	0.301 µg/mL		
B3	1.43 µg/mL		
B4	0.272 µg/mL		
B5	1.68 µg/mL		
B6	0.401 µg/mL	> 1 µg/mL	> 1 µg/mL
B7	5.95 µg/mL		
B8	0.432 µg/mL		
B9	0.562 µg/mL		
B10	0.0062 µg/mL		
B11	0.702 µg/mL		
